# Experiment: soluble on expression in E. coli; label from the status in PepcDB or PDB records
row,Sequence,soluble on expression in E. coli
1,MSLNTGINCPFDCGLCARHRSHTNLLNIVLTNRCNLSCWYCFFYAREGEPVYEPTLEQIRMMLRNAKKENPIGANAVQFTGGEPTLRDDLIEIIKIAKEEGYDHVQLNTDGIRLAFEPELVKKIREAGVNTLYLSYDGMTPQTNWKNHWEIPLIFENVRKAGGPGIVLVPTLIRNVNDHEAGAIINFGLNHLDIVRGVNFQPISLVGRVPKKERQRFRITIAGAIKKIEEQTNGAISRDDWYPIPIAGYIARFFEAFTGKHYYMTSHYACGAATYVFLDKEEKKVIPIPRFIDVEGFVEFLVEKAEEIERARFKGLAKLKAIGETVFIKFKQFYDEKYAPKGLDVLGLIKNAFMHGNYDALGQFHTKTLFLGMMHFMDEYNYDVERVERCVIHYAMPDGRIVPFCTFNVIPEIYRDKVQRQFSYSWEEWKKLHPDWDYKKDKYFRTREFVEKMKNSELYRKTYIDIVNYFEEGHHHHHH,soluble
2,MSLNVLHVASECNPFFKTGGLADVLGSLPKALIKQGINVSVILPKYGHLSDEWQNQLTLKKSFTVSVTWRNQYCGLEQFVDQGVTYYFIDNEYYFKRERLYGYLDEAERFTFFNHAVLSSLPFLDESPDLIHCHDWQSGLIPAYMKTGSVENPVPTVFTIHNLRYQGAFPPDVFRELLHFAPEHFAGLEMDGAINFLKGALVHSDRVTTVSPTYAQEIQTPAFGEGLHGLLHQERGKTRGILNGIDLEDFDPKTDPHVTYPYKHNQMEKRKNKQVIQRLFELPERKDIPLIAMVSRLVEEKGVPLLTQIAGELVTTENVQLAILGTGDPSLEDQLHHLASLHPHQISFKCVFAEPLARKLYAGADLFIMPSRFEPCGLSQMISLRYETVPIVRETGGLYDTIQSYNEEIGEGNGFSFTHYNAHDFLYTIKRALRFYRTEKEWENLLLNIYSSEVGWDVSAKQYTALYEEILGKRKVEAEGHHHHHH,not soluble
3,MSLPAKRKLTMRHIRQMLRLAGSGTSSREIAVMLGIARSTVQDNLKRAAMAGLSWALASGLTDDVLEAKLFVHPGVKRGQRLRQEPDWGPLSIELKKPGVTLLILWEEYRSAHPDGYGYSRFCELFRGFEKRLSPTMRQEHIAGDKVFVDYSGKKVPIVDRKTGEIREAELFLGVLGASSYCTRGRSVHLGELLRRAWIFQHLGNREGHHHHHH,not soluble
4,MSLPEYDPDKYRGIDVSYVNICMRRAWLSLHEIFYVRDSYYVSDGAYLADINRKGLPISTGRSRMDNVQIHKDFIMVHEYKRGYKMIKADKMQILHYMYIIKLKENLDIKGKLHFLGSKKVVDIELNDENLNELYKSYENIDKLKDMAKPPEPVRNYFCVHGCSYSDFCWCEGHHHHHH,soluble
5,MSLPHLSLADARNLHLAAQGLLNKPRRRASLEDIPATISRMSLLQIDTINIVARSPYLVLFSRLGNYPAQWLDESLARGELMEYWAHEACFMPRSDFRLIRHRMLAPEKMGWKYKDAWMQEHEAEIAQLIQHIHDKGPVRSADFEHPRKGASGWWEWKPHKRHLEGLFTAGKVMVIERRNFQRVYDLTHRVMPDWDDERDLVSQTEAEIIMLDNSARSLGIFREQWLADYYRLKRPALAAWREARAEQQQIIAVHVEKLGNLWLHADLLPLLERALAGKLTATHSAVLSPFDPVVWDRKRAEQLFDFSYRLECYTPAPKRQYGYFVLPLLHRGQLVGRMDAKMHRQTGILEVISLWLQEGIKPTTMLQKGLRQAITDFASWQQATRVTLGRCPQGLFTDCRTGWEIDPVA,not soluble
6,MSLPNRLLITNASIAKMDEPDDGYGLMMHAALLIQDEKIEWLGSVSDIPAGLGDPEELDACGRLLTPALIDCHTHIVHGGNRAREFEMRLEGASYEEIARAGGGIISTVTATRETDEAALLQDALKRADSLIAEGVSLIEIKSGYGLDVETELKMLRVARAIERERSVRVVTSFLGAHAVPKGADADFYIDKVCIPALEAAHKEGLVDAVDGFCEGIAFDTVQMGRLFERARQLDIPVKLHAEQLSNIGGTKLAASYNALSVDHVEYADKTDIAAMAKAGSVAVLLPGAFYTLHETQKPLVEAFRSESVPMAVATDWNPGSSPMGSLLLAMNMSCTLFGLTPVEALAGTTRNAARALGLKDCGIVAPGKRADLAIWDVLEPAELSYRFGVNPLHRRIFGGRLEGHHHHHH,soluble

# Source: the DeepSol protein solubility set
